According to patent US20160046705A1 (Amgen, published 2016):

T1: human sclerostin (human, UniProt Q9BQB4 24-213, biotin-labeled (site not stated))
T1 construct: also called biotin-labeled human sclerostin; SOST
T1 sequence: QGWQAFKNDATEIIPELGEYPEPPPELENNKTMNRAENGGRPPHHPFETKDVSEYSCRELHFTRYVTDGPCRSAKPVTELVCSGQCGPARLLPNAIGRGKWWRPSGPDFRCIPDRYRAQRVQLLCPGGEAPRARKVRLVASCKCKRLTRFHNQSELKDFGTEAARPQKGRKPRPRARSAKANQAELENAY

B1: 20C3 (antibody, V domains shown)
VH: QVQLQESGPGLVKPSETLSLTCTVSGGSISSYYWSWIRQPPGKGLEWIGYISDSGSTNYNPSLKSRIPISVDTSKNQFSLKLSSVTAADTAVYYCARWQLAHDAFDIWGQGTMVTVSS
VL: QSALTQPASVSGSPGQSITISCTGTSSDVGGYNYVSWYQQHPGKAPKLMIYEVSYRPSGVSNRFSGSKSGSTASLTISGLQPEDEADYYCSSYAISSTLVFGGGTKMTVL
notes: Parental anti-sclerostin antibody, described as directed against the loop 2 region of sclerostin
B2: 27H6 (antibody, V domains shown)
VH: EVQLVESGGGLVQPGGSLRLSCAASGFTFSSYSMNWVRQAPGKGLEWVSYISSSGSSIYYADSVKGRFTISRDNAKNSLYLQMNSLRDEDTAVYYCARERYYGDTPFDYWGQGTLVTVSS
VL: DIVMTQTPLSLPVTPGEPASISCRSSQSLLNSVDGSTNLDWYLQKPGQSPQLLIYTLSYRASGVPDRFSGSGSGTDFTLKISRVEAEDVGVYYCMQRIEFPLTFGGGTKVEIK
notes: also called sclerostin antibody 27H6

Molecular target: T1, human sclerostin
Test: competition alpha screen, increasing antibody against his-tagged LRP6 / biotin-labeled human sclerostin

Row | Binder | binding result
1 | B1 | binds
2 | B2 | binds
